This passage reports self-cleavage results from the RNAGym collection of RNA variant scans (doi:10.7554/elife.80360).

B1: Hairpin Ribozyme (parent)
chain: GUCCUCUUUCACGUGCGCGUGAAAGAGAGAAGUGAACCAGAGAAACACACGUUGUGGUAUAUUACCUGGUA

The variants in the data set derive from B1. Nature of the data set: self-cleavage, relative activity (ratio to wild type); higher = more cleavage; co-transcriptional.
For GUCCUCUUUCAGGUGCGCGAGAAAGAGAGAAGUGAACCAGAGAAACACACGUUGUGGUAUAUUACCUGGUA [C12G U20A], the self-cleavage stood at 0.795. Then GUCCUCUUUCAGGUGCGCGUGAAAGAGAGAAGUGAACCAGAGAAACACACGUUGUGGUAUAUUACCUGGGA [C12G U70G], with 0.615.

For GUCCUCUUUCAGGUGCGCGUGAAAGAGAGAAGGGAACCAGAGAAACACACGUUGUGGUAUAUUACCUGGUA [C12G U33G], the self-cleavage amounted to 0.0897. Then GUCCUCUUUCAGGUGCGCGUGAAAGAGAGAAGCGAACCAGAGAAACACACGUUGUGGUAUAUUACCUGGUA [C12G U33C], with 0.246. With GUCCUCUUUCAGGUGCGCGUGAAAGAGAGAAGUGAACCAGAGAAACACACGUAGUGGUAUAUUACCUGGUA [C12G U53A], the self-cleavage stood at 0.911. Regarding GUCCUCUUUCAGGUGCGCGUGAAAGAGAGAAGUGAACCAGAGAAACACACGUGGUGGUAUAUUACCUGGUA [C12G U53G], the self-cleavage was 0.562. Take GUCCUCUUUCAGGUGCGCGUGAAAGAGAGAAGUGAACCAGAGAAACACACGUCGUGGUAUAUUACCUGGUA [C12G U53C]: the self-cleavage came out at 0.919. For the variant GUCCUCUUUCAGGUGCGCGUGAAAGAGAGAAGUGAAGCAGAGAAACACACGUUGUGGUAUAUUACCUGGUA [C12G C37G], the self-cleavage stood at 0.294.

For the variant GUCCUCUUUCAUGUGCGCGUGAAAGAGAGAAGUGAACCAGCGAAACACACGUUGUGGUAUAUUACCUGGUA [C12U A41C], the self-cleavage amounted to 0.886. Take GUCCUCUUUCAAGUGCGCGAGAAAGAGAGAAGUGAACCAGAGAAACACACGUUGUGGUAUAUUACCUGGUA [C12A U20A]: the self-cleavage turned out to be 0.865. For the variant GUCCUCUUUCAAGUGCGCGCGAAAGAGAGAAGUGAACCAGAGAAACACACGUUGUGGUAUAUUACCUGGUA [C12A U20C], the self-cleavage stood at 0.919.

Consider GUCCUCUUUCAGGUGCGCGUGAAAGAGAGACGUGAACCAGAGAAACACACGUUGUGGUAUAUUACCUGGUA [C12G A31C], for which the self-cleavage was 0.174.

As to GUCCUCUUUCAGGUGCGCGUGAAAGAGAGAAGUGAACCAGAGAAACACACGUUGAGGUAUAUUACCUGGUA [C12G U55A], the self-cleavage was 0.25.

GUCCUCUUUCAAGUGCGCGUGAAAGAGAGAAGUGAACCAGAGAAACACACGUUGUGGUAUAUUACCAGGUA [C12A U67A]: the self-cleavage turned out to be 0.18. In the case of GUCCUCUUUCAAGUGCGCGUGAAAGAGAGAAGUGAACCAGAGAAACACACGUUGUGGUAUAUUACCGGGUA [C12A U67G], the self-cleavage was determined as 0.215. For GUCCUCUUUCAAGUGCGCGUGAAAGAGAGAAGUGAACCAGAGAAACACACGUUGUGGUAUAUUACCCGGUA [C12A U67C], the self-cleavage worked out at 0.216.

For the variant GUCCUCUUUCAGGUGCGCGUGAAAGAGAGAAGUGAACCAGAGAAACACACGUUGUGGUAUAUUAACUGGUA [C12G C65A], the self-cleavage is 0.829. For GUCCUCUUUCAGGUGCGCGUGAAAUAGAGAAGUGAACCAGAGAAACACACGUUGUGGUAUAUUACCUGGUA [C12G G25U], the self-cleavage worked out at 0.472. As to GUCCUCUUUCAGGUGCGCGUGAAAGAGAGAAGUGAACCAGAGAAAUACACGUUGUGGUAUAUUACCUGGUA [C12G C46U], the self-cleavage was 0.191. Regarding GUCCUCUUUCAGGUGCGCGUGAAAGAGAGAAGUGAACCAGACAAACACACGUUGUGGUAUAUUACCUGGUA [C12G G42C], the self-cleavage is 0.351. As for GUCCUCUUUCAGGUGCGCGUGAAAGAGAGAAGUGAACCAGAGAAACACACGUUGUGGUAUAUUACGUGGUA [C12G C66G], the self-cleavage came to 0.26. With GUCCUCUUUCAGGUGCGCGUGAAAGAGAGAAGUGAACCAGAGAAACACACGUUGUGGUAUAUUACUUGGUA [C12G C66U], the self-cleavage stood at 0.369.

With GUCCUCUUUCAGGUGCGCGUGAAAGAGAGAAGUGAACCAGAGAAGCACACGUUGUGGUAUAUUACCUGGUA [C12G A45G], the self-cleavage is 0.0996. For GUCCUCUUUCAGGUGCGCGUGAAAGAGAGAAGUGAGCCAGAGAAACACACGUUGUGGUAUAUUACCUGGUA [C12G A36G], the self-cleavage came to 0.843. Then GUCCUCUUUCAGGUGCGCGUGAAAGAGAGAAGUGACCCAGAGAAACACACGUUGUGGUAUAUUACCUGGUA [C12G A36C], with 0.533; and GUCCUCUUUCAGGUGCGCGUGAAAGAGAGAAGUGAACCAGCGAAACACACGUUGUGGUAUAUUACCUGGUA [C12G A41C], with 1.21. Take GUCCUCUUUCAGGUGCGCGUGAAAGAGAGAAGUGAACCAGAGAAACACACGUUGUGGUAUAUGACCUGGUA [C12G U63G]: the self-cleavage was determined as 0.204. Then GUCCUCUUUCAGGUGCGCGUGAAAGAGAGAAGUGAACCAGAGAAACACACGUUGUGGUAUAUAACCUGGUA [C12G U63A], with 0.194.

In the case of GUCCUCUUUCAGGUGUGCGUGAAAGAGAGAAGUGAACCAGAGAAACACACGUUGUGGUAUAUUACCUGGUA [C12G C16U], the self-cleavage worked out at 0.812. For the variant GUCCUCUUUCAGGUUCGCGUGAAAGAGAGAAGUGAACCAGAGAAACACACGUUGUGGUAUAUUACCUGGUA [C12G G15U], the self-cleavage came out at 0.906. As for GUCCUCUUUCAGGUCCGCGUGAAAGAGAGAAGUGAACCAGAGAAACACACGUUGUGGUAUAUUACCUGGUA [C12G G15C], the self-cleavage worked out at 0.756. On to GUCCUCUUUCAAGUGCGCGUGAAAGAGAGAAGUGAACCAGAGAAACACACGUUGUGGUAUAUUACCUUGUA [C12A G68U], for which the self-cleavage stood at 0.251.

Take GUCCUCUUUCAGGUGCGCGUGAAAGAGACAAGUGAACCAGAGAAACACACGUUGUGGUAUAUUACCUGGUA [C12G G29C]: the self-cleavage stood at 0.13. Turning to GUCCUCUUUCAGGUGCGCGUGAAAGAGAUAAGUGAACCAGAGAAACACACGUUGUGGUAUAUUACCUGGUA [C12G G29U], the self-cleavage was determined as 0.234. On to GUCCUCUUUCAUGUGCGCGUGCAAGAGAGAAGUGAACCAGAGAAACACACGUUGUGGUAUAUUACCUGGUA [C12U A22C], for which the self-cleavage came to 0.831. Then GUCCUCUUUCAGGUGCGCGUGAAAGUGAGAAGUGAACCAGAGAAACACACGUUGUGGUAUAUUACCUGGUA [C12G A26U], with 0.696; and GUCCUCUUUCAGGUGCGCGUGAAAGCGAGAAGUGAACCAGAGAAACACACGUUGUGGUAUAUUACCUGGUA [C12G A26C], with 0.555. On to GUCCUCUUUCAGGUGCGCGUGAAAGAGAGAAGUGAACCAGAGAAACACACGUUGUGGUGUAUUACCUGGUA [C12G A59G], for which the self-cleavage was determined as 0.18.
